Peptide text beside a SMILES is read from it. * marks the point of attachment. Cbz = O=C(OCc1ccccc1)*; CH2F = FC*
Legend:
human calpain I = molecular target: T1, human calpain I (Homo sapiens, UniProt P07384); test: In vitro calpain-mediated proteolysis reaction; format: biochemical; conditions: for JP2 degradation by calpain I: WT mouse heart lysates, 3 mM free Ca2+, Z-LLY-FMK 20 μM, EDTA 5 mM
T1 construct: purchased Calbiochem
T1 sequence (P07384 1-714): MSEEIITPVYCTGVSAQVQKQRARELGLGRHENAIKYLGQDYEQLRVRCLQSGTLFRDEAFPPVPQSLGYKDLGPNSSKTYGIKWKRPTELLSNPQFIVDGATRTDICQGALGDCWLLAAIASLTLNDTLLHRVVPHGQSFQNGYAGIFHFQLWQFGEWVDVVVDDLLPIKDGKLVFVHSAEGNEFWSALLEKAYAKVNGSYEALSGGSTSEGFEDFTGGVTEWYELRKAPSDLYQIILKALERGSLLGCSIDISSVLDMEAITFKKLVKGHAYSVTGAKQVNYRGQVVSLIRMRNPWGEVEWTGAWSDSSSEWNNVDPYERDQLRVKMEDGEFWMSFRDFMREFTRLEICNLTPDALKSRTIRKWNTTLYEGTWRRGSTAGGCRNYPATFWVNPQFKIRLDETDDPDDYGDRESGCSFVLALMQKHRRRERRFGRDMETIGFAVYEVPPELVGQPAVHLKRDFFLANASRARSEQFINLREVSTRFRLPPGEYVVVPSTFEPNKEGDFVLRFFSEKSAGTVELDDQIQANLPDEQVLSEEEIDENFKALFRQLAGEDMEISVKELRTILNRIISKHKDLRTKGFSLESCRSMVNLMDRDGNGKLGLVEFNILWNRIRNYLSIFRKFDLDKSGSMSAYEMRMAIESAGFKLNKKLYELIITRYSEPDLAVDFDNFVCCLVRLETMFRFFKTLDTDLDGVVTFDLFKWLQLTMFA
T1 sequence (P04632 1-268 partner): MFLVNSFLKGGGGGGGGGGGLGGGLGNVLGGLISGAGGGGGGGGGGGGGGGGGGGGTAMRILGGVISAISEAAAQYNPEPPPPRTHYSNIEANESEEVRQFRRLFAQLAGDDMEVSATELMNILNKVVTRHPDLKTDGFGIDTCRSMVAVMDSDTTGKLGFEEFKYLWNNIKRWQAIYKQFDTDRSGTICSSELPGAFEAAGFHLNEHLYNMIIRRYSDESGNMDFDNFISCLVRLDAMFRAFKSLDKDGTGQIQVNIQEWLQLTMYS
Method: Mouse and human heart tissues as well as HEK 293T cells (obtained from the ATCC and cultured according to the protocol of the manufacturer) overexpressing tagged JP2 were washed with PBS and homogenized in lysis buffer (20 mM Tris-HCl, 150 mM NaCl, 2 mM EDTA, and 1% Triton X-100), followed by sonication. Homogenates were centrifuged for 10 minutes at 14,000 rpm at 4° C. Protein content in the supernatant was determined using the BCA assay (Thermo Scientific). Cell extracts were diluted in ice-cold calpain reaction buffer (135 mM NaCl, 5 mM KCl, 1 mM MgCl2, 10 mM glucose, 10 mM Hepes (pH 7.25), 2 mM lactacystin, and 10 mM 2-mercaptoethanol) to a concentration of 4 mg protein/ml. Just prior to starting the protease reaction, CaCl2 was added to achieve a final concentration of 3 mM free Ca^2+ (in the presence of EDTA), as calculated by winmaxc32 (Stanford University). For some experiments, the free Ca^2+ concentration was adjusted to 500 μM, as calculated by winmaxc32. Purified human calpain I (Calbiochem) was added at a concentration of 1 mg of total protein/1 μg of calpain I. Reactions without Ca^2+ or without purified calpain I were used as controls. Reactions were incubated at 30° C. for the indicated time and stopped by adding EDTA to a final concentration of 10 mM and incubating for 5 minutes at 95° C. The reaction products were subjected to Western blotting.

JP2-KD cardiomyocytes = test: Confocal Ca2+ imaging in JP2-KD cardiomyocytes after adenoviral expression; format: cell-based, mouse; conditions: 1-Hz field stimulation
Source text: Specifically, conditional shJP2 mice (provided by Dr. Wehrens) (van Oort et al., 2011) were crossed with mice carrying the cardiac-specific α-myosin heavy chain promoter upstream of Cre (% MHC-Cre, also FVB-Tg(Myh6-cre)2182Mds/J, The Jackson Laboratory). The shJP2 mice were maintained on a C57BL/6 background for more than 10 generations. The αMHC-Cre mice were maintained on an FVB background. PCR was used to genotype the offspring. The near complete depletion of JP2 protein in JP2-KD (αMHC-Cre X shJP2) hearts has been reported recently (Chen et al., 2013). JP2-KD mice were sacrificed at 2 months of age for isolation and culture of ventricular cardiomyocytes as described below.
Genecarrior-1 (Epoch Lab) was used to transfect plasmids into HEK293T cells. Isolation and culture of cardiomyocytes were performed as described previously (Guo et al., 2012). […] Ca^2+ Imaging experiments were performed 40 hours after adenoviral infection.
Cells were loaded with Rhod-2AM at 37° C. for 20 minutes, followed by washing with Tyrode's solution at room temperature for 15 minutes before Ca^2+ imaging. Confocal images were acquired using a ×63, 1.3 numerical aperture oil immersion objective mounted on a Zeiss LSM 510 confocal microscope. Confocal line scanning was used to record Ca^2+ signals. Steady-state Ca^2+ transients were recorded in Tyrode's solution containing 1.8 mM Ca^2+ under field stimulation of 1 Hz. At least five steady-state transients for each cell were analyzed and averaged to represent Ca^2+ signals of the cell. Ca^2+ imaging data were analyzed by using a home-complied software, CaTeasy, which is coded in MATLAB 2013a (Mathworks). Briefly, the program normalizes Ca^2+ transient images on a column-by-column basis (512 columns/image). The characteristic parameters of normalized transients were detected automatically. The firing time of every scanning pixel was detected column by column on the basis of the maximum local variability of pixel intensity. The profile of the point-to-point firing time was indicated by a red line overlapping on the Ca^2+ image. Index of desynchronization, defined by the mean absolute deviation of firing time of each scanning pixel (with every 8 pixels binned), was used to evaluate the dyssynchrony of Ca^2+ transients. This automated software for calcium transient analysis is available upon request.

RyR2 and Cav1.2 = test: Coimmunoprecipitation with E-C coupling channels; format: binding, mouse; conditions: anti-HA immunoprecipitation
Source text: FIGS. 5A-H. JP2 truncations are nonfunctional in regulating Ca^2+ transients. A) An antibody against the HA tag was used to reveal the localization of adenoviral expression of tagged full-length JP2 and truncations, as indicated, in adult wild-type cardiomyocytes. All the three version of JP2 can be localized in the striated pattern. B) Full-length JP2 and JP2(1-565) forms complexes with RyR2 and Cav1.2 In vivo. An antibody against HA was used for immunoprecipitation […]. The RyR2 and Cav1.2 that were pulled down were detected by Western blot analysis. […] IB, immunoblot. C) Adenovirus-mediated expression of full-length JP2, FLAG-JP2(1-565)-HA, and JP2(566-end)-HA in JP2-KD) cardiomyocytes. D) Representative steady-state Ca^2+ transients under 1-Hz field stimulation. The fluorescence intensity (F) of Ca^2+ imaging was normalized to the baseline (FO). The red lines overlapping on Ca^2+ imaging show the profile of the moment of Ca^2+ transient firing on the scanning line in a point-by-point way. A straighter line means better synchronization of the Ca^2+ transients. Note that expression of full-length JP2, but not JP2 truncations, improves the amplitude and synchronization of Ca^2+ transients. E-G) Summary of Ca^2+ transient amplitude, index of desynchronization (mean absolute deviation of firing time), and duration of 50% decay (T5) (n=68, 70, 70, and 52 for Ad-Empty, Ad-JP2, […], and Ad-JP2(566-end), respectively). Only full-length JP2 Improves the amplitude, synchronization, and decay of Ca^2+ transients. H) Summary of SR Ca^2+ content, which was assessed by caffeine-induced SR Ca^2+ release (n=17, 17, 17, and 12 for Ad-Empty, Ad-JP2, Ad-JP2(1-565), and Ad-JP2(566-end), respectively). **, p<0.01 versus indicated groups; N.S., not significant.
Cleavage at the primary calpain proteolysis site (Arg-565/Thr-566) splits apart the C-terminal SR-binding TM domain and N-terminal plasma membrane-binding MORN domains of JP2. […]

TATA box DNA sequences = test: Gel shift assay with TATA box sequences; format: binding; conditions: GST-purified protein; cMyc or CMV promoter sequences
Source text: FIGS. 11A-H. JP2NT is a TATA-box binding protein enriched at transcription start site (TSS) and interacts with basic transcription machinery. […] C) 293T cells were transfected with HA-tagged JP2NT, followed by crosslinking-reversal immunoprecipitation with anti-HA and immunoblotting with anti-polymerase II (Rpb1) or anti-TATA box binding protein (TBP). D-H) JP2NT binds to TATA box DNA sequences in vitro. D-E) Gel shift assays of GST-purified JP2NT binding to WT (D). or mutated TATA box-containing sequences (E) derived from the cMyc promoter. F) Summary of the results of gel shift assays with various of TATA box variants or mutants. Mutation of the core TATA sequences abolished the interaction with GST-JP2NT. G) Deletion of the ARR, but not the N-terminal MORN domains, eliminated JP2NT binding to the TATA box sequence. H) The peptide JP2^331-405 containing the ARR specifically binds to WT TATA box sequence.
TBP specifically binds to TATA boxes, eukaryotic core cis-regulatory elements localized at transcription start site. […] This interaction was abrogated by mutation of the TATA box elements (FIGS. 11E&G and 17B). It was concluded that JP2NT is a DNA binding protein, binding to consensus TATA box represented as TATAA(A/T) or TATATA (FIG. 11F).

[1] = tested on: MEF2C Response Element (MRE) from the desmin enhancer; test: Gel shift assay with MEF2 response element; format: binding; conditions: purified protein
Source text: FIGS. 12A-E. JP2NT represses MEF2-mediated transcription by competing for the MEF2 Response Element (MRE). A) Enrichment of MEF2 binding motifs in ChIP-seq dataset. B) Gel shift assay of JP2NT binding to a desmin promoter-derived DNA sequence containing a WT or mutated MRE in vitro. C) Co-immunoprecipitation of HA-tagged JP2NT binding to MEF2C or Histone H3. D) & E) MEF2 activity assays in 293T cells co-transfected with luciferase under the control of an MRE, MEF2C and WT JP2NT (D) or a mutant lacking the ARR (E, JP2NT^ΔARR). n≥3 independent batches of cells; in each batch of experiments, 3 replicates were performed for each transfection; **p<0.01 vs. Ad-Empty.
The MEF2 family, master regulators of hypertrophic genes in cardiomyocytes, binds to the A/T enriched consensus sequence (C/TTA(A/T)4TA G/A), which shares the same core sequence with TATA box. Thus, it was hypothesized that JP2NT directly interacts with MEF2 binding sites.

## O=C(O)CN(CCN(CC(=O)O)CC(=O)O)CC(=O)O [EDTA]
Human calpain I
  JP2 degradation by calpain I: inhibited JP2 degradation

## CC(C)CC(NC(=O)OCc1ccccc1)C(=O)NC(CC(C)C)C(=O)NC(Cc1ccc(O)cc1)C(=O)CF (stereo not drawn) [Z-LLY-FMK] (Cbz-Leu-Leu-Tyr-CH2F; configuration not given here)
Human calpain I
  JP2 degradation by calpain I: inhibited JP2 degradation
Human calpain I; lysates of 293T cells overexpressing FLAG/HA-tagged JP2, 3 mM and 500 μM Ca2+
  JP2 cleavage products and full-length JP2: substantial reduction in cleavage products and preservation of full-length JP2

B1: JP2(566-end): C-terminal JP2 truncation, tagged with HA at the C terminus (protein)
chain: TGPPEPPPLEDEQEPEPEPEPEVRRSDSAPPSPVSATVPEEEPPAPRSPVPAKQATLEPKPIVPKAEPKAKARKTEARGLSKAGAKKKGRKEVAQAKEAEVEVEEVPNTVLICMVILLNIGLAILFVHLLTYPYDVPDYA
JP2-KD cardiomyocytes
  restoration of Ca2+ transients: failed to restore
RyR2 and Cav1.2
  interaction with RyR2 and Cav1.2: not

B2: GST-JP2^331-405: purified peptide containing the ARR; DNA binding domain of JP2NT (protein, UniProt Q9ET78 331-405, looked up, fragment)
chain: EEGKYRHNVLVKGTKRRVLPLKSSKVRQKVEHGVEGAQRAAAIARQKAEIAASRTSHAKAKAEAAEQAALAANQE
modifications: GST tag
TATA box DNA sequences
  binding to TATA box: specifically bound to the consensus but not mutant TATA box
[1]
  interaction with MEF2C Response Element (MRE): interacts

Reference: US11351270B2, “Junctophilin-2 fragments and uses therefor” (University of Iowa Research Foundation, priority 2016, dated 2022)
